# Measured values reported in patent US20220280636A1.
# Legend:
# [1] = biological target: guinea pig whole molecule IgG (guinea pig); assay: SPR; IgG amine coupled to CM5 chip, control flowed at 490 ug/ml at the end of the serial flows; end-point RU of association phase
# [2] = biological target: human IgG Fc (human); assay: as above
# [3] = biological target: human whole molecule IgG (human); assay: as above
# [4] = biological target: mouse whole molecule IgG (mouse); assay: as above
# [5] = biological target: rabbit whole molecule IgG (rabbit); assay: as above
# [6] = biological target: human IgG Fc (human); assay: SPR; IgG amine-coupled to CM5 chip, control flowed at 490 ug/ml at the end of the serial flows; end-point RU of association phase
# [7] = biological target: human whole molecule IgG (human); assay: as above
# [8] = biological target: rabbit whole molecule IgG (rabbit); assay: as above
# [9] = biological target: human IgG Fc (human); assay: as above; remark: listed apart in the source
# [10] = biological target: human whole molecule IgG (human); assay: as above; remark: listed apart in the source
# [11] = biological target: rabbit whole molecule IgG (rabbit); assay: as above; remark: listed apart in the source
# [12] = biological target: guinea pig whole molecule IgG (guinea pig); assay: SPR; IgG amine coupled to CM5 chip, control flowed at 490 ug/ml at the start of the serial flows; end-point RU of association phase
# [13] = biological target: human IgG Fc (human); assay: as above
# [14] = biological target: human whole molecule IgG (human); assay: as above
# [15] = biological target: mouse whole molecule IgG (mouse); assay: as above
# [16] = biological target: rabbit whole molecule IgG (rabbit); assay: as above
# [17] = biological target: human whole molecule IgG (human); assay: SPR; IgG amine-coupled to CM5 chip, control flowed at 490 ug/ml at the start of the serial flows; end-point RU of association phase
# [18] = biological target: rabbit whole molecule IgG (rabbit); assay: as above
# [19] = biological target: human IgG Fc (human); assay: as above
# [20] = biological target: human whole molecule IgG (human); assay: as above; remark: listed apart in the source
# [21] = biological target: rabbit whole molecule IgG (rabbit); assay: as above; remark: listed apart in the source
# [22] = biological target: guinea pig whole molecule IgG (guinea pig); assay: SPR; IgG amine coupled to CM5 chip, construct flowed at 750 ug/ml; end-point RU of association phase
# [23] = biological target: human IgG Fc (human); assay: as above
# [24] = biological target: human whole molecule IgG (human); assay: as above
# [25] = biological target: mouse whole molecule IgG (mouse); assay: as above
# [26] = biological target: rabbit whole molecule IgG (rabbit); assay: as above
binder,measurement,setting,value
gE-1t 411 (protein) GTPKTSWRRVSVGEDVSLLPAPGPTGRGPTQKLLWAVEPLDGCGPLHPSWVSLMPPKQVPETVVDAACMRAPVPLAMAYAPPAPSATGGLRTDFVWQERAAVVNRSLVIHGVRETDSGLYTLSVGDIKDPARQVASVVLVVQPAPVPTPPPTPADYDEDDNDEGEDESLAGTPASGTPRLPPPPAPPRSWPSAPEVSHVRGVTVRMETPEAILFSPGETFSTNVSIHAIAHDDQTYSMDVVWLRFDVPTSCAEMRIYESCLYHPQLPECLSPADAPCAASTWTSRLAVRSYAGCSRTNPPPRCSAEAHMEPVPGLAWQAASVNLEFRDASPQHSGLYLCVVYVNDHIHAWGHITISTAAQYRNAVVEQPLPQRGADLAEPTHPHVGAPPHA,RU Post Association,[1],30 RU
same,RU Post Association,[2],72 RU
same,RU Post Association,[3],144 RU
same,RU Post Association,[4],8 RU
same,RU Post Association,[5],223 RU
same,RU Post Association,[6],75 RU
same,RU Post Association,[7],150 RU
same,RU Post Association,[8],221 RU
same,RU Post Association,[9],76 RU
same,RU Post Association,[10],152 RU
same,RU Post Association,[11],228 RU
same,RU Post Association,[12],32 RU
same,RU Post Association,[13],77 RU
same,RU Post Association,[14],147 RU
same,RU Post Association,[15],4 RU
same,RU Post Association,[16],231 RU
same,RU Post Association,[17],145 RU
same,RU Post Association,[18],221 RU
same,RU Post Association,[19],80 RU
same,RU Post Association,[20],157 RU
same,RU Post Association,[21],228 RU
gE-1t 419 (protein) GTPKTSWRRVSVGEDVSLLPAPGPTGRGPTQKLLWAVEPLDGCGPLHPSWVSLMPPKQVPETVVDAACMRAPVPLAMAYAPPAPSATGGLRTDFVWQERAAVVNRSLVIHGVRETDSGLYTLSVGDIKDPARQVASVVLVVQPAPVPTPPPTPADYDEDDNDEGEDESLAGTPASGTPRLPPPPAPPRSWPSAPEVSHVRGVTVRMETPEAILFSPGETFSTNVSIHAIAHDDQTYSMDVVWLRFDVPTSCAEMRIYESCLYHPQLPECLSPADAPCAASTWTSRLAVRSYAGCSRTNPPPRCSAEAHMEPVPGLAWQAASVNLEFRDASPQHSGLYLCVVYVNDHIHAWGHITISTAAQYRNAVVEQPLPQRGADLAEPTHPHVGAPPHAPPTHGALR,RU Post Association,[22],27 RU
same,RU Post Association,[23],69 RU
same,RU Post Association,[24],127 RU
same,RU Post Association,[25],4 RU
same,RU Post Association,[26],188 RU
